# From the supplement of paper PMC9170038
# Test system: MS2 coat protein
# Experiment: apparent KD of MS2 coat protein; designed switch direction (-1 OFF switch, 1 ON switch): 1; higher = weaker reporter binding
# Method in brief: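 Three titration conditions were used: no input, 200 uM small-molecule ligand, and an oligonucleotide input. In each, SNAP-549-labelled MS2 coat protein was raised from 0.7 or 1.5 nM, doubling, to 3 µM over designed RNA switches transcribed on Illumina chips by stalled E. coli RNA polymerase. Curve fits of normalised cluster fluorescence gave values whose per-design median over clusters is the apparent KD.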
# [1] = input ligand: microRNA oligo, concentration not stated
# [2] = Eterna round: R95, input ligand: FMN 200 uM
# [3] = Eterna round: R95, input ligand: microRNA oligo, concentration not stated
# [4] = Eterna round: R95, input ligand: none
Sequence,apparent KD of MS2 coat protein (input ligand: FMN 200 uM) [nM],apparent KD of MS2 coat protein [1] [nM],apparent KD of MS2 coat protein (input ligand: none) [nM],apparent KD of MS2 coat protein [2] [nM],apparent KD of MS2 coat protein [3] [nM],apparent KD of MS2 coat protein [4] [nM]
"AGGAAACAUGAGGAUCACCCAUGUAAAAAAGUGGGAGGAUAUACUAGAAGAAACAAAAUAGUAGAAGGCCUAAAAA [75%, Ex sub1, 32] (Eterna round: R96, puzzle: Same State 1)",19.1,37.7,42.3,–,–,–
"UAGUUUUAGCGAGGAUAUCGUAUGUUUAAUUUUUUAUAUUGUUUACAUGAGGAUCACCCAUGUUACGAGAAGGCGCAUGGGAUU [JR_SSNG2_Sub080] (Eterna round: R96, puzzle: Same State NG 2)",–,273,–,–,–,–
CGUCCAGCCUGAGCUGGACAAAAGCAUGUACAUGAGGAUCACCCAUGUUCAUGUACAAGCUUUUUGCUCGUCUUACC [salish99_208a_r3_094x] (puzzle: Sensor for hsa-mir-208a),–,–,–,638,15.9,1010
"AGUAGUUUAACAUGAGGAUCACCCAUGUAUUUUUCUGUAACCUAGGAUAUGGGCGUUGUAUUUAUCCAGAAGGAGGAUCGUUUA [JR_SSNG3_Sub048] (Eterna round: R96, puzzle: Same State NG 3)",30.3,28.3,31.1,–,–,–
"UUGAAGAAUUAAGGAUAUUGAAUACAUAUGUUUAACAUGAGGAUCACCCAUGUGGGUUGCGGUGUCGAGAAGGUAAAUUAAUAG [Mat - same State NG 2 - JL mod - D94] (Eterna round: R96, puzzle: Same State NG 2)",221,191,291,–,–,–
"AGCUAUUAAUCAGGAUAUGGUGACAUGAGGAUCACCCAUGUAUUGAUGAUUAAAUGUGGUCACUACCAGAAGGGAUUACUAACA [SameState NG2 #50] (Eterna round: R96, puzzle: Same State NG 2)",34.2,221,260,–,–,–
"GCCGCGUUUCGCGCCUACAUGAGGAUCACCCAUGUAUGUCGGCAGGAUAUCGUUUGCUUUGCAAACGAGAAGGGCUGUUGUGGC [salish99_SSNG3_R04_011] (Eterna round: R96, puzzle: Same State NG 3)",13.4,9.04,14.4,–,–,–
"UCGUUCAUCGUAGGAUAUCUAGGAUAUGAACGAGGAUCACCCGAGCAGCAUCAGCGCAUCAGAGGAGAGAAGGACGCUGAUGCG [pwkr ssNG2 2F5 2FMN.20] (Eterna round: R96, puzzle: Same State NG 2)",30,8.83,84.8,–,–,–
"AUGUAUCGCCUCGAGGAUAUCCUGUCAUGCACAUGAGGAUCACCCAUGUAAGAGCGAGUUUAAUGGGAGAAGGCGAGUUCUCGGU [JR_SS002_Sub1707] (Eterna round: R96, puzzle: Same State 2)",46.9,78.5,106,–,–,–
"AGCUAGUACCAAGGAUAUACGAACAUGAGGAUCACCCAUGUAUACAUGGUUUAAUGAGACUACAUGUAGAAGGUGGUACUAGCA [SameState NG2 #12] (Eterna round: R96, puzzle: Same State NG 2)",387,338,538,–,–,–
"UUAUCAUUGCAAGGAUAUUGAUUACAUGAGGAUCACCCAUGUUAAUGAACACUAUGUACUACUAACAAGAAGGUGCUAUAAAUU [JR_SSNG2_Sub041] (Eterna round: R96, puzzle: Same State NG 2)",35.1,28,34.3,–,–,–
UUUAAACAUGAGGAUCACCCAUGUUUUUUUAUGGGAGGAUAUCUAAGUUAAUUAUAUUAAGGAGAAGGCCUAUUUU [× ×•×ª×• ×ž×“×™× ×” × ×—×ª-04] (puzzle: Same State 1),–,–,–,–,124,–
CGGCGCUGUCGAGAGGAUAUGCGGUGAUGGACAUGAGGAUCACCCAUGUUAGCGAUAGCAUCACGGUAGAAGGCUCUACGGCCUG [Soteed Omei mod 22] (puzzle: Same State 2),–,–,–,–,52.3,–
"UUUCUCAUGUAAGGAUAUGCAGCCGUUUCGGCUGCAGAAGGUACUAUAAUACAUGAGGAUCACCCAUGUCUCUAUUAUUUAGUU [JL SSNG1 1.44] (Eterna round: R96, puzzle: Same State NG 1)",84.7,39.9,47.1,–,–,–
UGGAUCUAGGCUUGCCUGGGUCCAUGUUGACAUGAGGAUCACCCAUGUGUAUUUUUUUAGCUUUUUGUUUGUCAACA [JL A Humble Attempt mod 5] (puzzle: Sensor for hsa-mir-208a),–,–,–,39,15.1,41.1
"AUAAAACAUGAGGAUCACCCAUGUCAACAAAGUCGAGGAUAUGGGCAAAUAAAAUAAGAACCAGAAGGCGAAUAAC [salish99_SS1_r3_003] (Eterna round: R96, puzzle: Same State 1)",39.7,215,282,–,–,–

Sequence,apparent KD of MS2 coat protein (input ligand: FMN 200 uM) [nM],apparent KD of MS2 coat protein [1] [nM],apparent KD of MS2 coat protein (input ligand: none) [nM],apparent KD of MS2 coat protein [2] [nM],apparent KD of MS2 coat protein [3] [nM],apparent KD of MS2 coat protein [4] [nM]
AAAAGUUGCGGGCAGGAUAUGUAUUAAAAUACAUGAGGAUCACCCAUGUGCGGGUAUAACACCCGACAGAAGGGCCAAACGCGAC [Mat - Same State 2 - Mod of UCT - D96] (puzzle: Same State 2),–,–,–,27.4,178,333
"AGAGGAAGGGCAGGAUAUACGACGGAGGACGAGGUAGAAGGGUCCAUGUGAUAACAUGAGGAUCACCCAUGUACCGCGCGACGA [AK SSNG1-V2-18] (Eterna round: R96, puzzle: Same State NG 1)",147,43.1,832,–,–,–
AGAGUGUAUCCACAGGAUAUGCGAGCCGACACAUGAGGAUCACCCAUGUAGUCCUAAAGGGCUGAGCAGAAGGGUGGUAAGGCUC [Xelear] (puzzle: Same State 2),–,–,–,31.7,169,285
"ACAUGAGACUUAGGAUAUGUUGUACCUACAUGUGACAUGAGGAUCACCCAUGUGGUAAGUAUGAGGCAGAAGGGAGAGAUAUGU [Equivalence 47 - Jieux - Same State NG 2] (Eterna round: R96, puzzle: Same State NG 2)",54.3,85.6,77.7,–,–,–
"UCGUUCAUCGUAGGAUAUCUAGGAUAUGAACGAGGAUCACCCGAGCAGCAUCAGCGCAUCAGAGGAGAGAAGGACGAUGAUGCG [pwkr ssNG2 2F5 2FMN.4] (Eterna round: R96, puzzle: Same State NG 2)",1080,37.2,172,–,–,–
AGUUGUGGAAAACUAUAGCAAAAGUAUGUACAUGAGGAUCACCCAUGUCAUGUACAAGCUUUUUGCUCGUCUUAAAA [ak 4 mod of one Eli's designs.] (puzzle: Sensor for hsa-mir-208a),–,–,–,23,21,23.3
"UAAAGCGACGUAGGAUAUCCUCUACAUGCGUAAGGAGAAGGAUGCGCAACAUGAGGAUCACCCAUGUAAAACCAGCACUGCUGG [Isaerte] (Eterna round: R96, puzzle: Same State NG 1)",71.9,22.5,36.7,–,–,–
GCGGAACAUGAGGAUCACCCAUGUAAAGGGUGUAAAGGAUAUUAUUGGGAGAAGGUAGGGUAAGAAGGUUGCUUGG [JR_SS1_Sub088] (puzzle: Same State 1),–,–,–,609,666,1240
"GUGCUCGUGUAAGGAUAUGCAGCCGUUUCGGCUGCAGAAGGUACUAUAAUACAUGAGGAUCACCCAUGUCUCUAUAAUUUGGUG [salish99_SSNG1_r04_904] (Eterna round: R96, puzzle: Same State NG 1)",–,107,–,–,–,–
"GUGGUGGGUUGAGGAUAUUGGUUGUCGUUGUCCCACAUGAGGAUCACCCAUGUGGGUUGUGGUUUUGAGAAGGUUGGUUGCUGG [salish99_SSNG2_r04_052] (Eterna round: R96, puzzle: Same State NG 2)",–,12.9,–,–,–,–
"AAUUAAUUAAUACAUGAGGAUCACCCAUGUAAUUAUUAGAUCAAGGAUAUCAGCUCGUUUAGAGCUGAGAAGGUGAUCACAUGU [SSNG3/18-A3] (Eterna round: R96, puzzle: Same State NG 3)",–,211,–,–,–,–
"GCGCAGCUGCGCAAUAUUACAUGAGGAUCACCCAUGUUGUCACAGGAUAUGCUGGACAGCGUCGAGCAGAAGGGUGACCAAACA [Zasovexe] (Eterna round: R96, puzzle: Same State NG 3)",191,97.2,300,–,–,–
"GUUACAUGAGGAUCACCCAUGUAUGUGUGGGAGUAAGUGUCUUAGGAUAUCUAGUAAUUAAUUUAAGAGAAGGAAGAUUGUUGU [JMF's solution 54] (Eterna round: R96, puzzle: Same State NG 3)",133,93.5,134,–,–,–
UACAAUCUAUCUGAGGAUAUCAUGAUUUAAACAUGAGGAUCACCCAUGUGCAGGAAAACUGCAUAUGAGAAGGCAGAUAGAUUGU [salish99_ss2_r3_063] (puzzle: Same State 2),–,–,–,135,297,241
"UUGAAGAAUUAAGGAUAUUGAUUACAUAUGUAUAACAUGAGGAUCACCCAUGUGGGUUGCGGUAUCGAGAAGGUAAAUUACUAG [Mat - same State NG 2 - JL mod - D75] (Eterna round: R96, puzzle: Same State NG 2)",145,98.5,98.2,–,–,–
